We go through seven molecules from patent CN112159475A (NANJING KAEDI BIOTECH INC, dated 2021).

T1: 融合至人IgG1 Fc段的人Siglec-15胞外结构域的重组蛋白Siglec-15-Fc (human, UniProt Q6ZMC9 20-263)
T1 construct: extracellular domain; also called 人Siglec-15重组蛋白; Siglec-15-Fc重组蛋白; not shown: human IgG1 Fc segment
T1 sequence (looked up): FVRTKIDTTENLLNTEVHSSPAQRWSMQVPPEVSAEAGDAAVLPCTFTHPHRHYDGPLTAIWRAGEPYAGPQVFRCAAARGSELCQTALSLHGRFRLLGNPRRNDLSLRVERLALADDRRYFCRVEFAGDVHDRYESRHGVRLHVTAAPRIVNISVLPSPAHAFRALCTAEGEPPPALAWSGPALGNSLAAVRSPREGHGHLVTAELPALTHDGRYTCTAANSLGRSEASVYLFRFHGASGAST

B1: KD075-C52 (antibody, V domains shown)
VH: EVQLVESGGGLVKPGGSLKLSCAASGFTFSYYAMSWVRQTPEKRLEWVATVSDVDDYTYYPDNVKGRFNISRDNAKNNLYLQMRHLKSEDTAMYYCVRDGSYGWYFDVWGTGTTVTVSS
VL: DIVMTQSPSSLTVTAGEKVTMSCKSSQSLLNSGNQKNYLTWYQQKPGQTPKLLIYWASTRESGVPDRFTGSGSGTDFTLTISSVQAEDLAVYYCQNDYSYPLTFGTGTKLELK
B2: KD075-C46 (antibody, V domains shown)
VH: EVKLVESEGGLVQPGSSMKLSCTASGFTFSDYYMAWVRQVPEKGLEWVAKINYDGSSTYYLDSLKSRFIISRDNAKNILYLQMSSLKSEDTATYYCARSYDYDGYYFDYWGQGTTLTVSS
VL: DIVLTQSPASLAMSLGKRATISCRASESVSIIGTNLIHWYQQKPGQPPKLLIYHASNLETGVPARFSGSGSRTDFTLTIDPVEEDDVAIYYCLQSRKIPWTFGGGTKLEIK
B3: KD075-C9 (antibody, V domains shown)
VH: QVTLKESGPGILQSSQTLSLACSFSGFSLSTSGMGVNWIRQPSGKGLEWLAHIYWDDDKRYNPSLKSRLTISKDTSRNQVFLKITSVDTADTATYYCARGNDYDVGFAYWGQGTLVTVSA
VL: DIVMTQSHKFMSTSVGDRVSITCKASQDVSTAVVWYQQKPGQSPKLLIDSASYRYTGVPDRFTGSGSGTDFTFTISSVQAEDLAVYYCQQHYSTPRTFGGGTKLEIK
B4: KD075-C18 (antibody, V domains shown)
VH: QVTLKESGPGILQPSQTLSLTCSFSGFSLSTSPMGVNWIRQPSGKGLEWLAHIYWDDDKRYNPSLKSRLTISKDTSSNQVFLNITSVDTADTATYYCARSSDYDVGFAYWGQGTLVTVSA
VL: B3 VL with V34A, P40L, D49S
B5: KD075-C40 (antibody, V domains shown)
VH: EVRLQQSGPELVKPGASVKISCKASGYTFTDYNIHWMKQSHGKSLEWIGYIYPSFGGTAYNQKFKSKATLTVDNSSSTAYMEFRSLTSEDSAVYFCAVYGNYEGFAYWGQGTLVTVSA
VL: ENVLTQSPAIMSASLGEKVTMSCRASSSVNYMYWYQQKSDASPKLWIYYTSNLAPGVPARFSGSGSGNSYYLTISSMEGEDAATYYCQQFTSSPWTFGGGTKLEIK
B6: KD075-C30 (antibody, V domains shown)
VH: DVQLVESGGGLVQPGGSRKLSCAASGFTFSSFGMHWVRQAPEKGLEWVAYISSGSSSIYYADTVKGRFTISRDNPKNTLFLQMTSLRSEDTAMYYCARTFPMDYWGQGTSVTVSS
VL: QAVVTQESALTTSPGETVTLTCRSSTGAVTISNYANWVQEKPDHLFTGLIGGTYNRSPGVPARFSGSLIGDKAALTITGAQTEDEAIYFCALWYSNHWVFGGGTKLTVL
B7: KD075-C31 (antibody, V domains shown)
VH: B6 VH with G16T, A23T, M93I
VL: B6 VL

Substitutions are numbered along the chain they refer to.

For the assay, the target named is T1, 融合至人IgG1 …. The assay can be described thus: indirect ELISA, plate coated with 0.5 ug/ml Siglec-15-Fc, purified antibody titrated from 10 ug/ml.
What is called EC50 is the concentration at which the effect is half-maximal. Low values mean an effect from little substance, high ones a need for much substance. Consider B1, for which the EC50 was determined as 2.25 ng/mL.

With B2, the EC50 was 2.29 ng/mL. To B3 belongs 1.97 ng/mL. B4 yielded an EC50 of 2.3 ng/mL. To B5 belongs 2.41 ng/mL. Regarding B6, the EC50 is 2.27 ng/mL. The result for B7 reads 2.4 ng/mL.
